Test results taken from article PMC7278938, “The MKK-Dependent Phosphorylation of p38α Is Augmented by Arginine Methylation on Arg49/Arg149 during Erythroid Differentiation” (International Journal of Molecular Sciences, 2020).

Legend:
[1] = target: Flag-p38α R49/149K mutant (UniProt Q16539 1-360, R49/149K | R49/149K); assay: cell-based or functional assay
Flag-p38α wild type [2] = target: T1, Flag-p38α wild type (UniProt Q16539 1-360); assay: cell-based or functional assay
Flag-p38α wild type [3] = target: T1, Flag-p38α wild type; assay: co-IP; Flag-p38α immunoprecipitated with anti-Flag antibodies and protein G agarose at 4 °C from lysates (1 mg) of p38α-knockdown K562 cells after AraC (1 μM, 5 h); lysis buffer 150 mM NaCl, 20 mM Tris pH 7.4, 0.2% Triton X-100; partners detected by Western blot and quantified; in Figure 6D with or without HA-PRMT1; settings: partners not purified

T1 sequence (Q16539 whole entry): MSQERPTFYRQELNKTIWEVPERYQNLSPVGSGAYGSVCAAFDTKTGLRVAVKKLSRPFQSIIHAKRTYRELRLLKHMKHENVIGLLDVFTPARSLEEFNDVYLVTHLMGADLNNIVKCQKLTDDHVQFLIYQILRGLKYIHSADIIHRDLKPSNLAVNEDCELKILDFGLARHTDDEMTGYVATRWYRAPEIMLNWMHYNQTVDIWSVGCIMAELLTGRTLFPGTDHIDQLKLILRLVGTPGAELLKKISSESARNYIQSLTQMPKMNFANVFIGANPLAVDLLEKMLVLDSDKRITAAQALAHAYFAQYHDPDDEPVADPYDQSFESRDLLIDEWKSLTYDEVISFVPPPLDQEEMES
Sequence of Flag-p38α R49/149K mutant (Q16539 other isoform, or with tags, fused parts or gaps R49/149K | R49/149K | R49/149K | R49/149K | mutant): as the sequence (Q16539 whole entry) above, with R49K, R149K counted along it

B1: MAPK kinase 3 (MKK3) (enzyme, human (endogenous in K562), UniProt P46734 1-347, looked up)
chain: MESPASSQPASMPQSKGKSKRKKDLRISCMSKPPAPNPTPPRNLDSRTFITIGDRNFEVEADDLVTISELGRGAYGVVEKVRHAQSGTIMAVKRIRATVNSQEQKRLLMDLDINMRTVDCFYTVTFYGALFREGDVWICMELMDTSLDKFYRKVLDKNMTIPEDILGEIAVSIVRALEHLHSKLSVIHRDVKPSNVLINKEGHVKMCDFGISGYLVDSVAKTMDAGCKPYMAPERINPELNQKGYNVKSDVWSLGITMIEMAILRFPYESWGTPFQQLKQVVEEPSPQLPADRFSPEFVDFTAQCLRKNPAERMSYLELMEHPFFTLHKTKKTDIAAFVKEILGEDS
notes: MKK3 (MAPK kinase 3), endogenous in human K562 cells, detected with anti-MKK3 (Cell Signaling #5674); source: endogenous, K562 lysate
[1]
  sorbitol (150 mM)-induced activation phosphorylation of Flag-p38α at 0.5 h (Western blot with anti-phospho-p38): ~2 fold
Flag-p38α wild type [2]
  sorbitol (150 mM)-induced activation phosphorylation of Flag-p38α at 0.5 h (Western blot with anti-phospho-p38): ~4 fold
Flag-p38α wild type [3]
  fold change of the interaction with HA-PRMT1 against without: 1.7 fold
